Consider 1 molecule from patent US20230340114A1 (IMMUNE ONC THERAPEUTICS, published 2023).

Assay [1] deals with T1, flag-tagged cynomolgus monkey LILRB4 expressed on CHO-K1 cells (cynomolgus monkey).
T1 construct: whole, on cells; also called cyno LILRB4
The assay can be described thus: FACS, CHO-stable cells expressing cyno LILRB4. In general terms: A flow cytometer gives signals particle by particle.

For assay [2], the target named is T1, flag-tagged cynomolgus monkey LILRB4 …. The experiment in a line: FACS, CHO-K1 cells stably expressing flag-tagged cyno LILRB4; H7K3 in formulation buffer, T0. As for the experimental part: (§1) EC50 FACS: Stable CHO-K1 cells expressing either human LILRB4 or flag-tagged cynomolgus monkey LILRB4 were used to determine binding capacity of stability samples of H7K3 antibody. CHO-K1 cells (1×10⁵) were stained with serially titrated stability samples followed by secondary staining with fluorescent-conjugated anti-human IgG (Biolegend). Geometric mean fluorescence (MFI) was measured and EC₅₀ were calculated by Prism.
(§2) The inventors then assessed the stability of the antibody H7K3 at 40° C. in PBS or a formulation buffer, the results of which are summarized in the Tables 2 and 3.

For assay [3] the target is unchanged. The assay can be described thus: FACS, CHO-K1 cells stably expressing flag-tagged cyno LILRB4; H7K3 in PBS, T0. The protocol: as §1, §2
The target in assay [4] is T2, human LILRB4 expressed on cells (human, UniProt Q8NHJ6 22-448).
T2 construct: whole, on cells; also called ILT3; CD85k
The experiment in a line: FACS, CHO-stable cells expressing human LILRB4.

In assay [5] the target is T2, human LILRB4 expressed on cells. The experiment in a line: FACS, CHO-K1 cells stably expressing human LILRB4; H7K3 in PBS after 2 weeks at 40°C. The protocol:
as §1, §2

The target is the same in assay [6]. The assay can be described thus: FACS, CHO-K1 cells stably expressing human LILRB4; H7K3 in PBS, T0. The protocol: as §1, §2
The target of assay [7] is T1, flag-tagged cynomolgus monkey LILRB4 …. The experiment in a line: FACS, CHO-K1 cells stably expressing flag-tagged cyno LILRB4; H7K3 in formulation buffer after 2 weeks at 40°C. As for the experimental part:
as §1, §2

The target is the same in assay [8]. The assay can be described thus: FACS, CHO-K1 cells stably expressing flag-tagged cyno LILRB4; H7K3 reference row of the formulation buffer stability table. The protocol:
as §1

Assay [9] deals with T2, human LILRB4 expressed on cells. The experiment in a line: FACS, CHO-K1 cells stably expressing human LILRB4; H7K3 in formulation buffer after 2 weeks at 40°C. As for the experimental part: as §1, §2
The target of assay [10] is T1, flag-tagged cynomolgus monkey LILRB4 …. The assay can be described thus: FACS, CHO-K1 cells stably expressing flag-tagged cyno LILRB4; H7K3 in formulation buffer after 4 weeks at 40°C. The protocol:
as §1, §2

For assay [11] the target is unchanged. The experiment in a line: FACS, CHO-K1 cells stably expressing flag-tagged cyno LILRB4; H7K3 reference row of the PBS stability table. As for the experimental part: as §1
The target in assay [12] is T2, human LILRB4 expressed on cells. The assay can be described thus: FACS, CHO-K1 cells stably expressing human LILRB4; H7K3 in formulation buffer, T0. The protocol:
as §1

The target of assay [13] is T1, flag-tagged cynomolgus monkey LILRB4 …. The assay can be described thus: FACS, CHO-K1 cells stably expressing flag-tagged cyno LILRB4; H7K3 in PBS after 2 weeks at 40°C. As for the experimental part: as §1, §2
Assay [14] has the same target. The assay can be described thus: FACS, CHO-K1 cells stably expressing flag-tagged cyno LILRB4; H7K3 in PBS after 4 weeks at 40°C. The protocol:
as §1, §2

Assay [15] concerns the target T2, human LILRB4 expressed on cells. The experiment in a line: FACS, CHO-K1 cells stably expressing human LILRB4; H7K3 reference row of the PBS stability table. The protocol: as §1, §2
For assay [16] the target is unchanged. The assay can be described thus: FACS, CHO-K1 cells stably expressing human LILRB4; H7K3 in formulation buffer after 4 weeks at 40°C. The protocol:
as §1, §2

Assay [17] has the same target. The experiment in a line: FACS, CHO-K1 cells stably expressing human LILRB4; H7K3 reference row of the formulation buffer stability table; H7K3 reference row of Table 3 (formulation buffer), not a T0 or 40° C. sample. As for the experimental part:
as §1

The target is the same in assay [18]. The experiment in a line: FACS, CHO-K1 cells stably expressing human LILRB4; H7K3 in PBS after 4 weeks at 40°C. As for the experimental part: as §1, §2

B1: H7K3 (antibody, V domains shown)
VH: EVQLVESGGGLVQPGGSLRLSCAASGFSLSSSYWISWVRQAPGKGLEWIGSIDSGSVGITYYATWVKGRFTISRDNSKNTLYLQMNSLRAEDTAVYYCARHGDNWALDLWGQGTLVTVSS
VL: DIQMTQSPSTLSASVGDRVTITCRASQSINSWLAWYQQKPGKAPKLLIYKASTLASGVPSRFSGSGSGTEFTLTISSLQPDDFATYYCQHGYIRGDLDNVFGGGTKVEIK
notes: Humanized from rabbit antibody B4-193; also called humanized anti-LILRB4 antibody; WT
Broadly, the EC50 is the concentration at which the effect is half-maximal. For B1, the concentration for a half-maximal effect (EC50) in [1] came to 1.33 nM; in [2], 0.883 nM; in assay [3], 1.21 nM; in assay [4], 0.543 nM; in assay [5], 0.895 nM; in assay [6], 0.734 nM. For the same molecule, the EC50 in assay [7] worked out at 3.81 nM; in assay [8], 1.19 nM; in assay [9] it was 1.42 nM; in [10], 6.05 nM; in assay [11], 1.19 nM; in assay [12], 0.557 nM. For the same molecule, the EC50 in [13] came to 1.71 nM; in assay [14] it was 1.72 nM; in [15] it was 0.65 nM; in [16], 2.14 nM; in assay [17] it was 0.65 nM; in assay [18], 0.696 nM.
